Binding result, Kd and kon data for three molecules are collected here from patent US20180273613A1 (SAMSUNG ELECTRONICS, published 2018).

For experiment [1], the target named is T1, BSA (bovine, UniProt P02769).
T1 construct: commercial preparation, not further described; also called Bovine serum albumin; BSA (Sigma)
Nature of the experiment: Complex ELISA: BSA coated (4 µg/ml), 10D6 2 µg/ml, anti-mouse IgG-HRP, OD450. The method, then: (§1) A 96-well MaxiSorp™ flat-bottom plate (Nunc) was coated with 4 μg/ml of Tie2-Fc (R&D systems) or BSA (Sigma). Then, the plate was washed five times with 0.05% (v/v) Tween-20-containing PBS (Phosphate Buffer Saline) and blocked with 1% (v/v) BSA (Bovine serum albumin; Sigma)-containing PBS at a room temperature for 2 hours. 0.25 μg/ml of Ang2 and 2 μg/ml of 10D6 antibody were added to each well of the plate, which was allowed to react at a room temperature for 2 hours and then washed five times with PBST. After that, an anti-mouse IgG antibody (Sigma) conjugated with HRP diluted in 1% (v/v) BSA-containing PBS at a ratio of 1:5,000 (v/v) was added in an amount of 100 μl to each well to react at a room temperature for 1 hour and then, the plate was washed five times with PBST. Lastly, 100 μl (microliter) of TMB substrate (Cell Signaling) was added to each well of the plate to induce color development for 3 min. and then, the reaction was ceased by the addition of 100 μl of Stop solution (Cell Signaling) and OD450 values were measured on a plate reader (Molecular Devices).
(ELISA stands for enzyme-linked immunosorbent assay.)

A further experiment has as its target T2, hTie2-Fc (R&D Systems) (human, UniProt Q02763 23-745).
T2 construct: Bought fusion protein, coated on the plate at 4 ug/ml; also called hTie-2/Fc fusion protein; not shown: Fc of human IgG1
The experiment is described as follows: Complex ELISA: Tie2-Fc coated (4 µg/ml), 10D6 2 µg/ml without Ang2, anti-mouse IgG-HRP, OD450. The procedure:
as §1

The target in experiment [2] is T3, recombinant hAng2 (C-His, R&D Systems) (human, UniProt O15123 19-496).
T3 construct: Bought protein (R&D Systems), captured on an anti-His chip in SPR; also called human Ang2 protein; Angiopoietin-2; not shown: C-terminal His tag
T3 sequence: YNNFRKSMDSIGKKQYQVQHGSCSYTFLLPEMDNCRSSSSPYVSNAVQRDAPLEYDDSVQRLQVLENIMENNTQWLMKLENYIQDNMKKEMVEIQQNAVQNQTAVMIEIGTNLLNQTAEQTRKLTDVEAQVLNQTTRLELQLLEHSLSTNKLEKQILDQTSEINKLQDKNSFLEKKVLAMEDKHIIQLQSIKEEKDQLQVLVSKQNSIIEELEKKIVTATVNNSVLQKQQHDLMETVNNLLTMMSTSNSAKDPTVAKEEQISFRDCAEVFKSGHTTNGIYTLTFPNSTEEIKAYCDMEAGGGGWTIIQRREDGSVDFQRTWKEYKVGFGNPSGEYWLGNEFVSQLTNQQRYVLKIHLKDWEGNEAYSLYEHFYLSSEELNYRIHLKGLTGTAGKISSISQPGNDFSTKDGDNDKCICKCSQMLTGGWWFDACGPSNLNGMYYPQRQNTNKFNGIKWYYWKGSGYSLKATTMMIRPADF
Nature of the experiment: SPR, BIAcore T100; hAng2 (C-His) captured on anti-His CM5 chip, antibody flowed. The method, then:
The binding affinity (KD values) of the antibodies to human Ang2 protein was measured by an SPR method using a BIAcore T100 (GE Healthcare). 25 μg/ml anti-His antibody was immobilized on a CM5 sensor chip (GE healthcare) using a pH 5.0 acetate solution and an amine coupling kit (GE Healthcare). 6 μg/ml of a recombinant hAng2 (C-His, R&D Systems) protein was flowed onto the chip to be captured at 100 to 200 RU levels.

The target in experiment [3] is T1, BSA. The experiment is described as follows: Complex ELISA: BSA coated (4 µg/ml), FLAG-Ang2 0.25 µg/ml and 10D6 2 µg/ml, Ang2 on the plate shown indirectly by bound 10D6 (anti-mouse IgG-HRP, OD450). The procedure: as §1

T1 sequence (P02769 25-607 limits assumed): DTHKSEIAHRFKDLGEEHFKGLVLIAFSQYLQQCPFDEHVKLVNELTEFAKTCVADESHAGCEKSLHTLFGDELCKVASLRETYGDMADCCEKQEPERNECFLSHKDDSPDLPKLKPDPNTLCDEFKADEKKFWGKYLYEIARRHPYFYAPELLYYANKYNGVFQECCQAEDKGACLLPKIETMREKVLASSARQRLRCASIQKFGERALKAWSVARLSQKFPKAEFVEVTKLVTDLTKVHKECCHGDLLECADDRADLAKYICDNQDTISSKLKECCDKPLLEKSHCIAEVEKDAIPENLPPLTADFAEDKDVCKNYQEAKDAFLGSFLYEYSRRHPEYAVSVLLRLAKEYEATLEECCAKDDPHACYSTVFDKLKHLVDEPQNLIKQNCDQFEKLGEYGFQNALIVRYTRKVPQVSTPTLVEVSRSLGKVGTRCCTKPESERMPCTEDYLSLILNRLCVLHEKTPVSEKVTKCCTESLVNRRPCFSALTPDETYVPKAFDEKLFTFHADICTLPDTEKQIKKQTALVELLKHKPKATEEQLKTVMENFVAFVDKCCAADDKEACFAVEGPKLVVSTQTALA
T2 sequence (Q02763 23-745 limits assumed): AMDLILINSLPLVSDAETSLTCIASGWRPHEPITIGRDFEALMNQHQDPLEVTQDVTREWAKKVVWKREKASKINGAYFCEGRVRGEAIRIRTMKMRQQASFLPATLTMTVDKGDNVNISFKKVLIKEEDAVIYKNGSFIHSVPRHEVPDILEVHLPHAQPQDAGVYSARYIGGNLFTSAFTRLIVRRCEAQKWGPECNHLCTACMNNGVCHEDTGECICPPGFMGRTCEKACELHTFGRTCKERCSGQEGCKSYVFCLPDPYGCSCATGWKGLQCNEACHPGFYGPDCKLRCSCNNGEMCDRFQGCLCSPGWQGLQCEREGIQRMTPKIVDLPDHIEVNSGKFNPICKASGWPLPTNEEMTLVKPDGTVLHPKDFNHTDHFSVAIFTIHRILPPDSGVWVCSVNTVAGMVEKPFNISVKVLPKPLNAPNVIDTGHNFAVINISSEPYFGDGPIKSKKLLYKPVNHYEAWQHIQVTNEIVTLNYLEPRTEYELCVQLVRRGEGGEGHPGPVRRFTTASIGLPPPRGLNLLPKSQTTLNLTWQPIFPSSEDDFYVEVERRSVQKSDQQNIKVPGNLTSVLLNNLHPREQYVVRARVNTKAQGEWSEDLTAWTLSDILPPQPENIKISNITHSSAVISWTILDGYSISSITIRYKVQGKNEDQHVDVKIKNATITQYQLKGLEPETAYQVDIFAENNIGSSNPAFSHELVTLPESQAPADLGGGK

B1: SAIT-ANG2-AB-m10D6 (antibody, V domains shown)
VH: DVQLQESGPDLVKPSQSLSLTCTVTGYSITSDYAWNWIRQFPGNKLEWMGYINYSGNTDYNPSLKSRSSITRDTSKNQFFLQLNSVTTGDTATYYCARGNFEGAMDYWGQGTSVTVSS
VL: SIVMTQTPKFLLVSAGDRVTITCKASQSVSNDVAWYQQKPGQSPKLLIYYASNRYPGVPDRFTGSGYGTDFTFTISTVQAEDLAVYFCQQDYSSPWTFGGGTKLEIK
notes: Mouse monoclonal antibody from hybridoma KCLRF-BP-00295, purified on Protein G and detected with anti-mouse IgG; the mouse constant regions are not; also called mouse antibody 10D6; mouse anti-Ang2 antibody 10D6
As for B1, the binding result with BSA [1] and in the experiment with hTie2-Fc (R&D Systems) was “no binding (tested: 2 µg/ml)” in each case.

B2: h10D6-OPTI-65 (antibody, V domains shown)
VH: QVQLQESGPGLVKPSETLSLTCAVSGYSITSDYAWNWIRQPPGKGLEWMGKISYSGKTDYNPSLKSRSTISRDTSKNQFSLKLSSVTAADTAVYYCARGNFEGAMDYWGQGTLVTVSS
VL: DIQMTQSPSSLSASVGDRVTITCKASQSVSNDVAWYQQKPGKAPKLLIYYASIPYPGVPSRFSGSGSGTDFTLTISSLQPEDFATYYCQQDYSSPWTFGQGTKLEIK
notes: also called HU2-6.6 / 10D6_VL-Hu1-2.4
Regarding B2, in experiment [2], the Kd (usually the concentration at which binding is half-saturated) was found to be 0.0454 nM and the kon – broadly, a measure of how fast the partners come together – came out at 496000 M⁻¹ s⁻¹.

B3: FLAG-tagged hAng2 (ligand)
chain: T3 sequence
notes: not shown: FLAG tag
In the case of B3, the binding result in the experiment with BSA [3] is “no binding (tested: 0.25 µg/ml)”.
